{
  "source": "paper PMC3553500",
  "target": "GAPDH (purified recombinant, no tag named) (UniProt P04406)",
  "test": "ELISA",
  "data": [
    {"substance": "NleB-FLAG (purified) (enzyme)", "values": [
      {"measurement": "Kd", "value": 32, "unit": "µM"}
    ]}
  ]
}
